From US20200407433A1

B1: murine mAb 24G7B10G2 (antibody, mouse IgG2a, V domains shown)
VH: EVQLLQSGPELMKPGTSVKISCKASGYTFTDYYMNWVKQSHGKSLEWIGDVNPNNGDTTYNQKFKGKATLTIDKSSSTAYMELRSLTSEDSAVYYCASITIVPLYFDFWGQGTTLAVSS
VL: DIVMTQSQKFMSTSVGDRVSVTCKASQNVGINVAWYQQKPGQSPKALLYSASYRYSGVPDRFTGSGSGTDFTLTISNVKSGDLAEYFCQQYNTYPYTFGGGTKLEIK
B2: murine mAb 30B8G9B11 (antibody, mouse IgG2a, V domains shown)
VH: EVQLQQSGPELVKPGASVKISCKASGYTFTDYYMNWVKQSHGKSLEWIGDVNPNNGGTHYNQKFKGKATLTVDKSSSTAYMELRSLTSEDSAVYYCASITIVPVYFDFWGQGTTLTVSS
VL: DIVMTQSQKFMSTSVGDRVSVTCKASQNVGPNVAWYRQKPGQSPKALIYSASYRYSGVPDRFTGSGSGTDFTLTISNVQSEDLADYICQQYNYYPYTFGGGTKLEIK
B3: murine mAb 6G5C8C4 (antibody, mouse IgG2a, V domains shown)
VH: EVQLQQSGPELVKPGASVKISCKASGYTFTDYYMNWVKQSHGKSLEWIGDINPNNGGTTYNQKFKGKATLTVDKSSTTAYMELRSLTSEDSAVYYCAVITIVPYYFDYWGQGTTLTVSS
VL: DIVMTQSQKFMSTSVGDRVSVTCKASQNVGSNVAWYQQKPGQSPKALIYSASFRYSRVPDRFSGSGSGTDFTLTISNVQSEDLADYFCQQYNSYPYTFGAGTKLELK

Molecular target: Primate CGRP (primate (macaque))
Assay: ELISA, primate CGRP binding

Primate CGRP (primate (macaque)), sequence (P06881 83-119): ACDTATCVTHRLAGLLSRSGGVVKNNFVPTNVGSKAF

Binder	EC50
B1	0.072 nM
B2	0.07 nM
B3	0.101 nM
